{"source": "paper PMC3162126", "binders": {"B1": {"name": "rrnB P1ΔUP (-UP), unlabelled competitor (dsDNA)", "DNA 1": "CCTCTTGTCAGGCCGGAATAACTCCCTATAAT", "DNA 2": "ATTATAGGGAGTTATTCCGGCCTGACAAGAGG"}, "B2": {"name": "rrnB P1wt (+UP), biotinylated probe (dsDNA)", "DNA 1": "AGAAAATTATTTTAAATTTCCTCTTGTCAGGCCGGAATAACTCCCTATAAT", "DNA 2": "ATTATAGGGAGTTATTCCGGCCTGACAAGAGGAAATTTAAAATAATTTTCT"}, "B3": {"name": "rrnB P1wt (+UP), unlabelled competitor (dsDNA)", "DNA 1": "B2 DNA 1", "DNA 2": "B2 DNA 2"}}, "key": {"[1]": {"target": "T1, AidB (Escherichia coli, UniProt P33224 1-541)", "T1 sequence": "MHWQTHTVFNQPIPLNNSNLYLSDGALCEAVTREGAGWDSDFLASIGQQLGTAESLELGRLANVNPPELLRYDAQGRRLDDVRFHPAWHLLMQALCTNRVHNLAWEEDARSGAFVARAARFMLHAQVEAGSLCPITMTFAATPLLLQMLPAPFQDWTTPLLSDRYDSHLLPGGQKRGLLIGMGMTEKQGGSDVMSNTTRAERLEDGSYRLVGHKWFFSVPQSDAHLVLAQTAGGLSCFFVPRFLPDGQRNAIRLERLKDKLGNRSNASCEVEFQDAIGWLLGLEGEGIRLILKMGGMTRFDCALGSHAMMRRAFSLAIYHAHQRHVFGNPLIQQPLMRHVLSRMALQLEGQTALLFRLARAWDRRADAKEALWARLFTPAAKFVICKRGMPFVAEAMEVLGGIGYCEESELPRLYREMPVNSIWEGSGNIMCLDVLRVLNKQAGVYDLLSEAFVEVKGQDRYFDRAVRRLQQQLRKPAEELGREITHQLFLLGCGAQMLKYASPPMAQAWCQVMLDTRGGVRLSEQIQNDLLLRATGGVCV", "experiment": "competition"}, "[2]": {"target": "T1, AidB", "experiment": "EMSA"}, "[3]": {"target": "T1, AidB", "experiment": "competition", "remark": "listed apart in the source"}}, "data": [{"binder": "B1", "values": [{"measurement": "binding result", "setting": "[1]", "value": "no binding"}]}, {"binder": "B2", "values": [{"measurement": "binding result", "setting": "[2]", "value": "binds"}]}, {"binder": "B3", "values": [{"measurement": "binding result", "setting": "[3]", "value": "binds"}]}]}
